Four molecules from patent publication US20260061022A1 (GI INNOVATION, published 2026) can be followed below.

The target of assay [1] is T1, IgG Fc gamma receptor IIIB (UniProt O75015 20-208, limits assumed).
T1 construct: Bought recombinant protein immobilised on an AR2G biosensor; also called FcγRIIIB
As to the kind of experiment: BLI response at 4 uM, FcγRIIIB immobilised on AR2G biosensor. Here is the method: (§1) Specifically, FcγRI, FcγRIIA, FcγRIIB, FcγRIIIA, and FcγRIIIB recombinant proteins (R & D Systems Inc., 5 μg/ml) which are Fc gamma receptors were immobilized in 300 mM acetate buffer (pH 5) on the activated AR2G biosensor. As a running buffer, PBS containing 0.1% Tween-20 and 1% bovine serum was used. All measurements were carried out at 30° C. with a sample plate shaker at a rate of 1,000 rpm.

A further assay deals with T2, IgG Fc gamma receptor I (UniProt P12314 16-288).
T2 construct: Bought recombinant protein immobilised on an AR2G biosensor; also called FcγRI
T2 sequence (P12314 16-288 limits assumed): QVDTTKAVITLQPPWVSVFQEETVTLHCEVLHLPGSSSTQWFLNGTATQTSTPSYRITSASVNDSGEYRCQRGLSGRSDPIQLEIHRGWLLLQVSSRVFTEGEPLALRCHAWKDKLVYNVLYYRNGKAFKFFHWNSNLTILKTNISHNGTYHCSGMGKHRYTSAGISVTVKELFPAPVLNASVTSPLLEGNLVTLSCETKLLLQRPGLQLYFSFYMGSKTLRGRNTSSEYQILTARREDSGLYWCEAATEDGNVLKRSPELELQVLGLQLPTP
As to the kind of experiment: BLI (Octet RED384), FcγRI immobilised on AR2G biosensor, IgETRAP in solution. Here is the method:
as §1

Assay [2] deals with T3, IgE (Homo sapiens (Human), UniProt P01854 1-427).
T3 construct: also called immunoglobulin E
T3 constant: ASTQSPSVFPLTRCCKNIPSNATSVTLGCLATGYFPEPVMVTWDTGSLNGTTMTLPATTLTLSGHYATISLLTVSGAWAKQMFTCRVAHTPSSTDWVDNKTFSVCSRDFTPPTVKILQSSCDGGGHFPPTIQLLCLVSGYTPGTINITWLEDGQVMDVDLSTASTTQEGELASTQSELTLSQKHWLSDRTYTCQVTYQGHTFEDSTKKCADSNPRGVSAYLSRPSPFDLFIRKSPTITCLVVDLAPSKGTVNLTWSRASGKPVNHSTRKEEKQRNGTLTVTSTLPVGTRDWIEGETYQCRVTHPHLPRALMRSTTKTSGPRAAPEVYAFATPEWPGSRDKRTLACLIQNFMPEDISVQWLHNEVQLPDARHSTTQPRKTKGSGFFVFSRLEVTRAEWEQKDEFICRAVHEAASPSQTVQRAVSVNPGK
As to the kind of experiment: SPR (ProteOn XPR36), IgE coated on the GLC sensor chip, IgETRAP flowed at 0, 3.2, 6.3, 12.5, 25 and 50 nM.

In assay [3] the target is T3, IgE. As to the kind of experiment: kinetic binding measurement of Table 3, KD against omalizumab as reference; the end is tied to FcεRIαECD-Fc2ST by 'exhibits the highest IgE-binding affinity which is 69-fold higher than omalizumab'. Here is the method:
(§2) Here, the experiments were conducted by identifying zero base using 25 mM NaOH as a regeneration buffer, and then repeating the above steps. Thereafter, a binding curve was identified using a protein binding analyzer (ProteOn XPR36, Bio-Rad Laboratories, Inc., USA).

Assay [4] deals with T4, IgG Fc gamma receptor IIA (UniProt P12318 36-218, limits assumed).
T4 construct: Bought recombinant protein immobilised on an AR2G biosensor; also called FcγRIIA
T4 sequence (looked up): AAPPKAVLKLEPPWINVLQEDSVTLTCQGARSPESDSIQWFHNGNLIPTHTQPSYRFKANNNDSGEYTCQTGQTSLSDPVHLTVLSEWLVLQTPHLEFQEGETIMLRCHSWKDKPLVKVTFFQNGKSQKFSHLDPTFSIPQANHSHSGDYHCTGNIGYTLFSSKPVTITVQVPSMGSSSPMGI
As to the kind of experiment: BLI (Octet RED384), FcγRIIA immobilised on AR2G biosensor, IgETRAP in solution. Here is the method: as §1

Assay [5] addresses IgE (Experimental Example 4). As to the kind of experiment: cell-based or functional assay.
Another assay concerns the target human IgE (human, UniProt P01854-1 1-428). The experiment in a line: cell-based or functional assay.
The target in assay [6] is T5, IgG Fc gamma receptor IIB (UniProt P31994 46-217, limits assumed).
T5 construct: Bought recombinant protein immobilised on an AR2G biosensor; also called FcγRIIB
T5 sequence (looked up): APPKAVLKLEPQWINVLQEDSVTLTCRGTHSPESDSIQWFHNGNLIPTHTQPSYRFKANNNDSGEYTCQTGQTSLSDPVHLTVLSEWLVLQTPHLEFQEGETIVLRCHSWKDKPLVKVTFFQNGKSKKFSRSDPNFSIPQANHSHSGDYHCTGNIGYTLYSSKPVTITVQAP
As to the kind of experiment: BLI (Octet RED384), FcγRIIB immobilised on AR2G biosensor, IgETRAP in solution. Here is the method: as §1

For assay [7], the target named is T3, IgE. The experiment in a line: SPR, ProteOn XPR36, IgE coated on GLC chip, analyte flowed. Here is the method: as §2

T1 sequence (O75015 20-208 limits assumed): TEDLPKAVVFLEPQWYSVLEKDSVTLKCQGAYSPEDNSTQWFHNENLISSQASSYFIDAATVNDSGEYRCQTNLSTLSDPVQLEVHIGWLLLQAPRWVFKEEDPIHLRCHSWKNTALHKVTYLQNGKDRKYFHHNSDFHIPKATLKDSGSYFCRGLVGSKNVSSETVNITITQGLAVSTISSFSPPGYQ

B1: FcεRIαECD-Fc2ST (Fc fusion)
chain: VPQKPKVSLNPPWNRIFKGENVTLTCNGNNFFEVSSTKWFHNGSLSEETNSSLNIVNAKFEDSGEYKCQHQQVNESEPVYLEVFSDWLLLQASAEVVMEGQPLFLRCHGWRNWDVYKVIYYKDGEALKYWYENHNISITNATVEDSGTYYCTGKVWQLDYESEPLNITVIKAPREKYWLQRNTGRGGEEKKGSKEKEEQEERETKTPECPSHTQPLGVFLFPPKPKDTLMISRTPEVTCVVVDVSQEDPEVQFNWYVDGVEVHNAKTKPREEQFNSTYRVVSVLTVLHQDWLNGKEYKCKVSNKGLPSSIEKTISKAKGQPREPQVYTLPPSQEEMTKNQVSLTCLVKGFYPSDIAVEWESNGQPENNYKTTPPVLDSDGSFFLYSRLTVDKSRWQEGNVFSCSVMHEALHNHYTQKSLSLSLGK
modifications: sialic acid added to the glycans by co-expressed α-2,6-sialic acid transferase
notes: Homodimer; also called IgETRAP; FcεRIαECD-Fc2 + a2,6-ST
For the molecule B1, the binding result in assay [1] was “no binding (tested: 4 uM)”. Further, the binding result with IgG Fc gamma receptor I is “no binding (tested: 4 uM)”. Moreover, binding with IgE [2] was put at a Kd of 0.215 nM. Further, the “fold change of equilibrium dissociation constant (KD) against omalizumab (printed as 'higher'; meant as higher affinity)” value in the assay with IgE [3] lay in the range of 22 to 69 fold. Moreover, in assay [4], the binding result is on record as “no binding (tested: 4 uM)”. For the same molecule, in assay [5], the “IC50 (read off the curve); inhibition ratio (%) of beta-hexosaminidase release from mouse bone marrow-derived mast cells, dimer pre-mixed with IgE at 1 ug/mL” value was about 0.5 µg/mL. Besides, in the assay with human IgE, the “IC50, inhibition of β-hexosaminidase secretion by human FcεRI-expressing mouse bone marrow-derived mast cells” value was about 0.0112 µg/mL and the “fold higher inhibitory ability on mast cell activity than Xolair” value stood at 58 fold. Besides, the binding result in assay [6] is given as “no binding (tested: 4 uM)”. Further, in the assay with IgE [7], the “fold better KD than omalizumab” value was found to be 69 fold, the “fold better kd than omalizumab” value is 106 fold and the “fold weaker ka than omalizumab” value stood at 1.5 fold.

B2: FcεRIαECD-Fc2 (Fc fusion)
chain: B1 chain
notes: Made in CHO DG44 cells without the sialic acid transferase; Homodimer joined through the hinge cysteine; also called polypeptide dimer
For the molecule B2, in the assay with IgE [7], the “fold better KD than omalizumab” value was 38 fold, the “fold better kd than omalizumab” value was 73 fold and the “fold weaker ka than omalizumab” value was found to be 1.9 fold.

B3: FcεRIαECD-Fc3 (Fc fusion)
chain: VPQKPKVSLNPPWNRIFKGENVTLTCNGNNFFEVSSTKWFHNGSLSEETNSSLNIVNAKFEDSGEYKCQHQQVNESEPVYLEVFSDWLLLQASAEVVMEGQPLFLRCHGWRNWDVYKVIYYKDGEALKYWYENHNISITNATVEDSGTYYCTGKVWQLDYESEPLNITVIKAPREKYWLQAQPQAEGSLAKATTAPATTRNTGRGGEEKKGSKEKEEQEERETKTPECPSHTQPLGVFLFPPKPKDTLMISRTPEVTCVVVDVSQEDPEVQFNWYVDGVEVHNAKTKPREEQFNSTYRVVSVLTVLHQDWLNGKEYKCKVSNKGLPSSIEKTISKAKGQPREPQVYTLPPSQEEMTKNQVSLTCLVKGFYPSDIAVEWESNGQPENNYKTTPPVLDSDGSFFLYSRLTVDKSRWQEGNVFSCSVMHEALHNHYTQKSLSLSLGK
notes: Made in CHO DG44 cells without the sialic acid transferase; Homodimer; also called polypeptide dimer
For the molecule B3, in the assay with IgE [7], the “fold better KD than omalizumab” value turned out to be 22 fold, the “fold better kd than omalizumab” value was found to be 45 fold and the “fold weaker ka than omalizumab” value came out at 2 fold.

B4: FcεRIαECD-Fc3ST (Fc fusion)
chain: B3 chain
modifications: sialic acid added to the glycans by co-expressed α-2,6-sialic acid transferase
notes: Homodimer; also called FcεRIαECD-Fc3 + a2,6-ST; polypeptide dimer
B4: in the assay with IgE [7], the “fold better KD than omalizumab” value was determined as 24 fold, the “fold better kd than omalizumab” value turned out to be 40 fold and the “fold weaker ka than omalizumab” value came out at 1.7 fold.
